Laboratory results reported in patent publication US20240117018A1.

What was measured:
Assay in all cases: cell-based or functional assay
[1] = molecular target: HIV-1 Env of pseudovirus ZM247v1(Rev-) (HIV-1)
[2] = molecular target: HIV-1 Env of pseudovirus P1981_C5_3 (HIV-1)
[3] = molecular target: HIV-1 Env of pseudovirus 231965.c01 (HIV-1)
[4] = molecular target: HIV-1 Env of pseudovirus HIV-16055-2.3 (HIV-1)
[5] = molecular target: HIV-1 Env of pseudovirus CNE20 (HIV-1)
[6] = molecular target: HIV-1 Env of pseudovirus Q769.d22 (HIV-1)
[7] = molecular target: HIV-1 Env of pseudovirus TRO.11 (HIV-1)
[8] = molecular target: HIV-1 Env of pseudovirus X1632_S2_B10 (HIV-1)
[9] = molecular target: HIV-1 Env of pseudovirus WEAU_d15_410_787 (HIV-1)
[10] = molecular target: HIV-1 Env of pseudovirus Q842.d12 (HIV-1)
[11] = molecular target: HIV-1 Env of pseudovirus T257-31 (HIV-1)
[12] = molecular target: HIV-1 Env of pseudovirus Ce2010_F5 (HIV-1)
[13] = molecular target: HIV-1 Env of pseudovirus 1054_07_TC4_1499 (HIV-1)
[14] = molecular target: HIV-1 Env of pseudovirus ZM197M.PB7 (HIV-1)
[15] = molecular target: HIV-1 Env of pseudovirus ZM53M.PB12 (HIV-1)
[16] = molecular target: HIV-1 Env of pseudovirus Ce1176_A3 (HIV-1)
[17] = molecular target: HIV-1 Env of pseudovirus Du422.1 (HIV-1)
[18] = molecular target: HIV-1 Env of pseudovirus CNE52 (HIV-1)
[19] = molecular target: HIV-1 Env of pseudovirus AC10.0.29 (HIV-1)
[20] = molecular target: HIV-1 Env of pseudovirus BJOX015000.11.5 (HIV-1)
[21] = molecular target: HIV-1 Env of pseudovirus ZM135M.PL10a (HIV-1)
[22] = molecular target: HIV-1 Env of pseudovirus X1254_c3 (HIV-1)
[23] = molecular target: HIV-1 Env of pseudovirus ZM109F.PB4 (HIV-1)
[24] = molecular target: HIV-1 Env of pseudovirus Du172.17 (HIV-1)
[25] = molecular target: HIV-1 Env of pseudovirus 1012_11_TC21_3257 (HIV-1)
[26] = molecular target: HIV-1 Env of pseudovirus CAAN5342.A2 (HIV-1)
[27] = molecular target: HIV-1 Env of pseudovirus Ce0393_C3 (HIV-1)
[28] = molecular target: HIV-1 Env of pseudovirus BJOX028000.10.3 (HIV-1)
[29] = molecular target: HIV-1 Env of pseudovirus 1394C9G1(Rev-) (HIV-1)
[30] = molecular target: HIV-1 Env of pseudovirus ZM214M.PL15 (HIV-1)
[31] = molecular target: HIV-1 Env of pseudovirus 62357_14_D3_4589 (HIV-1)
[32] = molecular target: HIV-1 Env of pseudovirus HIV-0013095-2.11 (HIV-1)
[33] = molecular target: HIV-1 Env of pseudovirus CNE53 (HIV-1)
[34] = molecular target: HIV-1 Env of pseudovirus ZM233M.PB6 (HIV-1)
[35] = molecular target: HIV-1 Env of pseudovirus Ce2060_G9 (HIV-1)
[36] = molecular target: HIV-1 Env of pseudovirus BJOX009000.02.4 (HIV-1)
[37] = molecular target: HIV-1 Env of pseudovirus CNE58 (HIV-1)

N49P7 (antibody)
IC50 [1]: 0.062 µg/mL
IC80 [1]: 0.214 µg/mL
MPI [1]: 100
IC50 (neutralisation, TZM.bl cells) [2]: 0.113 µg/mL
IC80 (neutralisation, TZM.bl cells) [2]: 0.274 µg/mL
MPI [2]: 100
IC50 (neutralisation, TZM.bl cells) [3]: 0.054 µg/mL
IC80 (neutralisation, TZM.bl cells) [3]: 0.193 µg/mL
MPI [3]: 100
IC50 [4]: 0.057 µg/mL
IC80 [4]: 0.28 µg/mL
MPI [4]: 100
IC50 [5]: 0.028 µg/mL
IC80 [5]: 0.1 µg/mL
MPI [5]: 100
IC50 [6]: 0.025 µg/mL
IC80 [6]: 0.111 µg/mL
MPI [6]: 100
IC50 [7]: 0.044 µg/mL
IC80 [7]: 0.16 µg/mL
MPI [7]: 100
IC50 (neutralisation, TZM.bl cells) [8]: 12 µg/mL
IC80 (neutralisation, TZM.bl cells) [8]: 40.4 µg/mL
MPI [8]: 85
IC50 [9]: 0.045 µg/mL
IC80 [9]: 0.117 µg/mL
MPI [9]: 100
IC50 [10]: 0.021 µg/mL
IC80 [10]: 0.06 µg/mL
MPI [10]: 100
IC50 [11]: 0.158 µg/mL
IC80 [11]: 0.619 µg/mL
MPI [11]: 100
IC50 [12]: 0.13 µg/mL
IC80 [12]: 0.547 µg/mL
MPI [12]: 100
IC50 [13]: 0.494 µg/mL
IC80 [13]: 2.31 µg/mL
MPI [13]: 100
IC50 [14]: 0.109 µg/mL
IC80 [14]: 0.347 µg/mL
MPI [14]: 100
IC50 [15]: 0.251 µg/mL
IC80 [15]: 0.8 µg/mL
MPI [15]: 100
IC50 [16]: 0.204 µg/mL
IC80 [16]: 0.589 µg/mL
MPI [16]: 100
IC50 [17]: 4.5 µg/mL
IC80 [17]: 19.5 µg/mL
MPI [17]: 93
IC50 [18]: 0.008 µg/mL
IC80 [18]: 0.023 µg/mL
MPI [18]: 100
IC50 [19]: 5.03 µg/mL
IC80 [19]: 36.7 µg/mL
MPI [19]: 89
IC50 [20]: 0.036 µg/mL
IC80 [20]: 0.157 µg/mL
MPI [20]: 100
IC50 [21]: 0.2 µg/mL
IC80 [21]: 0.96 µg/mL
MPI [21]: 100
IC50 [22]: 2.97 µg/mL
IC80 [22]: 13.6 µg/mL
MPI [22]: 100
IC50 [23]: 0.034 µg/mL
IC80 [23]: 0.153 µg/mL
MPI [23]: 100
IC50 [24]: 0.102 µg/mL
IC80 [24]: 0.668 µg/mL
MPI [24]: 100
IC50 [25]: 0.046 µg/mL
IC80 [25]: 0.125 µg/mL
MPI [25]: 100
IC50 [26]: 0.409 µg/mL
IC80 [26]: 1.21 µg/mL
MPI [26]: 100
IC50 [27]: 0.195 µg/mL
IC80 [27]: 0.802 µg/mL
MPI [27]: 100
IC50 [28]: 0.02 µg/mL
IC80 [28]: 0.123 µg/mL
MPI [28]: 100
IC50 [29]: 3.84 µg/mL
IC80 [29]: 21.1 µg/mL
MPI [29]: 94
IC50 [30]: 0.213 µg/mL
IC80 [30]: 0.953 µg/mL
MPI [30]: 100
IC50 [31]: 0.025 µg/mL
IC80 [31]: 0.102 µg/mL
MPI [31]: 100
IC50 [32]: 0.073 µg/mL
IC80 [32]: 0.253 µg/mL
MPI [32]: 100
IC50 [33]: 0.035 µg/mL
IC80 [33]: 0.124 µg/mL
MPI [33]: 100
IC50 [34]: 0.226 µg/mL
IC80 [34]: 0.774 µg/mL
MPI [34]: 100
IC50 [35]: 0.661 µg/mL
IC80 [35]: 2.55 µg/mL
MPI [35]: 100
IC50 [36]: 0.113 µg/mL
IC80 [36]: 0.506 µg/mL
MPI [36]: 100
IC50 [37]: 0.029 µg/mL
IC80 [37]: 0.067 µg/mL
MPI [37]: 100
